According to patent publication US20210101970A1 (Pfizer, published 2021):
Substitutions are numbered along the chain they refer to. Values belong to the binder of their own block, whether it stands above or below them.

Tests used:
human CXCR5 [1] = target: T1, human CXCR5 (human, UniProt P32302 1-372); experiment: cell-based or functional assay
T1 sequence: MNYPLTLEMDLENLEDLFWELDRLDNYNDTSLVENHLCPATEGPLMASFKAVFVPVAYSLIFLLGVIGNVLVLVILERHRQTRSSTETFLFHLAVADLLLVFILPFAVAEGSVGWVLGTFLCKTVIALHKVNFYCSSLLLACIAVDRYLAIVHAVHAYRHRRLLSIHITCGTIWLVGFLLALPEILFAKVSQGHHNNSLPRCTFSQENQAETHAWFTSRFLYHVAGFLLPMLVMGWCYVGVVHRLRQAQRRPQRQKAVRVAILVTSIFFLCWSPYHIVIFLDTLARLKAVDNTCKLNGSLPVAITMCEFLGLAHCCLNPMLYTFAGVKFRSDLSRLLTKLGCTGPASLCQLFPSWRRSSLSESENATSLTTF

XC276 = target: T2, XC276 (human, UniProt P32302 2-372); experiment: flow cytometry on HEK-293T cells transiently expressing the FLAG-tagged mutein; ratio of gMFI of the antibody to gMFI of anti-FLAG PE
T2 construct: also called hCXCR5 D10G
T2 sequence: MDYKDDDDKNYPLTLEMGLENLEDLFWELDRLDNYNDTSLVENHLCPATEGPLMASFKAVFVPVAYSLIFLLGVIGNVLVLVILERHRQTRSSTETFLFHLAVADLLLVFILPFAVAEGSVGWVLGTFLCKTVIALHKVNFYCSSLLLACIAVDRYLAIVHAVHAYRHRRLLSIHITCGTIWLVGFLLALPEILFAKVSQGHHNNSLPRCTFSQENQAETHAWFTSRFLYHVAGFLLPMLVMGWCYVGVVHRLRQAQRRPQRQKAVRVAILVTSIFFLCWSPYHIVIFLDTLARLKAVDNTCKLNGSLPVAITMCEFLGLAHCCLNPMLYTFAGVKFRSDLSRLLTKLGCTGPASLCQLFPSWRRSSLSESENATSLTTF
Experimental: (§1) The cells were analyzed by flow cytometry using an Accuri (BD Biosciences Franklin Lakes, N.J.). The geometric mean fluorescence intensity (gMFI) was determined and the ratio for the gMFI of each CXCR5 antibody and anti-flag was calculated.

XC277 = target: T3, XC277 (human, UniProt P32302 2-372); experiment: as above
T3 construct: also called hCXCR5 SI(insertion)
T3 sequence: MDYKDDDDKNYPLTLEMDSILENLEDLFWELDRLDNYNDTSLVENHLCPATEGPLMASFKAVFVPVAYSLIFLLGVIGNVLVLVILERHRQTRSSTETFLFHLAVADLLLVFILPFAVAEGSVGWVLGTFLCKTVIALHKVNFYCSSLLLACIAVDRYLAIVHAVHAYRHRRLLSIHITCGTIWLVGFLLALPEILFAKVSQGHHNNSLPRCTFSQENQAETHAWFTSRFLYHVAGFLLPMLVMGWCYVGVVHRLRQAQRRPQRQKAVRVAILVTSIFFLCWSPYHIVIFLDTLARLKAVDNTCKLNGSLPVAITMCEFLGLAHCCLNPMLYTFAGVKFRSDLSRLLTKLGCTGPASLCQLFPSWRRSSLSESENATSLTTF
Experimental: as §1

human CXCR5 [2] = target: T1, human CXCR5; experiment: cell-based or functional assay; remark: listed apart in the source
XC278 = target: T4, XC278 (human, UniProt P32302 2-372); experiment: flow cytometry on HEK-293T cells transiently expressing the FLAG-tagged mutein; ratio of gMFI of the antibody to gMFI of anti-FLAG PE
T4 construct: also called hCXCR5 L11T
T4 sequence: T2 sequence with G18D, L19T
Experimental: as §1

XC281 = target: T5, XC281 (human, UniProt P32302 2-372); experiment: as above
T5 construct: also called hCXCR5 D22A
T5 sequence: T2 sequence with G18D, D30A
Experimental: as §1

human CXCR5 [3] = target: T1, human CXCR5; experiment: flow cytometry on Raji cells, fucosylated chimeric antibody
Experimental: The fucosylated chimeric antibodies were then purified using protein A columns. The apparent affinity (cell binding EC50s) of chimeric antibody binding to Raji cells was determined by flow cytometry using a FACSVerse Analyzer (BD Bioscience, Franklin Lakes, N.J.) and are shown in Table 3.

% Inhibition CXCL13 (human CXCR5 [1]): 114% | EC50, stimulation of CXCL13-inhibited cAMP production (human CXCR5 [1]): 0.793 nM
B1: 2C9 (reference antibody) (antibody, human IgG1, kappa, V domains shown)
VH: EVQLVESGGGLVKPGGSLRLSCAASGFTFSTNAMNWVRQAPGKGLERVARIRSKSNNYATYYADSVKDRFTISRDDSKNTLYLQMNSLKTEDTAVYYCVTMIPFAYWGQGTLVTVSS
VL: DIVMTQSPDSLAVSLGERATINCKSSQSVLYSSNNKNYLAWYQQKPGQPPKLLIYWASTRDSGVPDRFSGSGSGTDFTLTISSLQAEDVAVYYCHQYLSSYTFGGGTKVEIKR
notes: fucosylated
binding result (XC276): no binding (tested: 1 or 3 µg/ml (not on the sheet)) | binding result (XC277): no binding (tested: 1 or 3 µg/ml (not on the sheet))

ADCC (EC50, pM) (human CXCR5 [2]): 2.38 pM
B2: Afucosyl humanized 11G2 154/155 (antibody, human IgG1, kappa, V domains shown)
VH: EVQLVESGGGLVQPGGSLRLSCAASGFTFTDFYMSWVRQAPGKGLEWVGFIRNKANGYTTEYSASVKGRFTISRDNAKNSLYLQMNSLRAEDTAVYYCARVYGSTLHYWGQGTLVTVSS
VL: DIQMTQSPSSLSASVGDRVTITCRASESVEYHGTSLMHWYQQKPGKAPKLLIYAASNVESGVPSRFSGSGSGTDFTLTISSLQPEDFATYYCQQSRKVPWTFGQGTKVEIKR
modifications: afucosylated Fc glycan (Asn297)
notes: also called afucosyl h11G2 XC154/XC155; afucosylated h11G2 VL XC154/VH XC155
binding result (XC278): no binding (tested: 1 or 3 µg/ml (not on the sheet)) | binding result (XC281): no binding (tested: 1 or 3 µg/ml (not on the sheet))

EC50 (human CXCR5 [3]): 0.0175 nM
B3: Chimeric 11G2 (antibody, human IgG1, kappa, V domains shown)
VH: EVKLVESGGGLVQPGGSLRLSCATSGFTFTDFYMSWVRQPPGRALEWLGFIRNKANGYTTEYSASVKGRFTISRDNSQSILYLQMNTLRAGDSATYYCVRVYGSTLHYWGQGTILTVSS
VL: DVVVTQSPDSLAVSLGQRATISCRASESVEYHGTSLMHWYQQKPGQPPKLLIYAASNVESGVPARFSGSGSGTDFSLNIHPVEEGDIAMYFCQQSRKVPWTFGGGTKLEIKR
notes: mouse V regions on human IgG1/kappa; also called 11G2 (chimeric)
